In US20220056091A1:

Molecular target: His-tagged human IL-18BP (human) (UniProt O95998)
Experiment: alphaLISA of free IL-18BP

Chain of His-tagged human IL-18BP (human) (O95998 31-194): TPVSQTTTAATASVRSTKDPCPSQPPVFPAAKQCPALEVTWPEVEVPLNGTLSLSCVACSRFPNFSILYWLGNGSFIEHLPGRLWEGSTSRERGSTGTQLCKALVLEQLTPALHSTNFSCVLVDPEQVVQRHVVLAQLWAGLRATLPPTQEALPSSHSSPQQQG
Chain of IL-18 polypeptide of SEQ ID NO: 1 (native sequence, human IL-18 37-193) (Q14116 37-193): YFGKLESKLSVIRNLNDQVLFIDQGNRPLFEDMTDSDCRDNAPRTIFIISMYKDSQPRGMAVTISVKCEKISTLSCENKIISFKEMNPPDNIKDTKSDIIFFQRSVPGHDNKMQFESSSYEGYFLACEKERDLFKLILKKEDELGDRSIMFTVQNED

| Substance | Kd [nM] |
| --- | --- |
| Modified IL-18 polypeptide of SEQ ID NO: 71 with a 30 kDa PEG attached at residue C68 (E6K, C38S, K53A, C68-30kDPEG) (from UniProt Q14116 37-193) (ligand) | 59.1 |
| Modified IL-18 polypeptide of SEQ ID NO: 16 (C38S, C68S, C76S, C127S, K70C) (from UniProt Q14116 37-193) (ligand) | 0.21 |
| Modified IL-18 polypeptide of SEQ ID NO: 20 (E06K, T63A) (from UniProt Q14116 37-193) (ligand) | 0.83 |
| Modified IL-18 polypeptide of SEQ ID NO: 19 (T63A) (from UniProt Q14116 37-193) (ligand) | 2.59 |
| Modified IL-18 polypeptide of SEQ ID NO: 7 (E06K, K53A) (from UniProt Q14116 37-193) (ligand) | 130 |
| Modified IL-18 polypeptide of SEQ ID NO: 15 (C38S, C68S, C76S, C127S) (from UniProt Q14116 37-193) (ligand) | 0.03 |
| Modified IL-18 polypeptide of SEQ ID NO: 3 (Y01G, F02A, E06K, M51G, K53A, D54A, S55A, T63A) (from UniProt Q14116 37-193) (ligand) | 969 |
| Modified IL-18 polypeptide of SEQ ID NO: 22 (E06K, K53A, C38S, C68S, C76S, C127S, K70C) (from UniProt Q14116 37-193) (ligand) | 446 |
| Modified IL-18 polypeptide of SEQ ID NO: 9 (K53A, S55A) (from UniProt Q14116 37-193) (ligand) | 500 |
| Modified IL-18 polypeptide of SEQ ID NO: 21 (K53A, T63A) (from UniProt Q14116 37-193) (ligand) | 198 |
| Modified IL-18 polypeptide of SEQ ID NO: 4 (K53A) (from UniProt Q14116 37-193) (ligand) | 514 |
| Modified IL-18 polypeptide of SEQ ID NO: 5 (S55A) (from UniProt Q14116 37-193) (ligand) | 10.7 |
| Modified IL-18 polypeptide of SEQ ID NO: 6 (E06K) (from UniProt Q14116 37-193) (ligand) | 0.13 |
| Modified IL-18 polypeptide of SEQ ID NO: 23 (K53A, T63A, C38S, C68S, C76S, C127S, K70C) (from UniProt Q14116 37-193) (ligand) | 913 |
| Modified IL-18 polypeptide of SEQ ID NO: 71 (E6K, C38S, K53A) (from UniProt Q14116 37-193) (ligand) | 50.2 |
| Modified IL-18 polypeptide of SEQ ID NO: 70 (E6K, K53A, C38S, C76S, C127S) (from UniProt Q14116 37-193) (ligand) | 436 |
| Modified IL-18 polypeptide of SEQ ID NO: 18 (E06K, K53A, T63A) (from UniProt Q14116 37-193) (ligand) | 340 |
| IL-18 polypeptide of SEQ ID NO: 1 (native sequence, human IL-18 37-193) (from UniProt Q14116 37-193) (ligand) | 0.67 |
| Modified IL-18 polypeptide of SEQ ID NO: 8 (E06K, S55A) (from UniProt Q14116 37-193) (ligand) | 12.3 |
| Modified IL-18 polypeptide of SEQ ID NO: 10 (E06K, K53A, S55A, T63A) (from UniProt Q14116 37-193) (ligand) | 822 |
